In the series the test system is apRAD51C-CTD-1 R258H (Alvinella pompejana). Nature of the series: fluorescence polarization. The note with it: FP: 20 mM HEPES pH 8, 80 mM NaCl, 2.5 mM ATP, 2.5 mM MgCl2, 1 mM DTT, 0.1 mg/mL BSA, 10 nM DNA, 37 C 20 min, EMSA: 20 mM Tris pH 8.0, 150 mM KCl, 4 C 15 min.

As to TTTTTTTTTTTTTTTTTTTT [poly-20dT], the equilibrium dissociation constant (Kd) (commonly the concentration at which binding is half-saturated) stood at 36.5 µM.

The values are drawn from PMC10366140.
